These results are taken from US20220025010A1 (ANTAG THERAPEUTICS, published 2022).

Where two headings read alike, the source gives them in different places. *1 amine or outer side, *2 acyl side, *3 side chain or, on linkers, in order; H or OH if unused. Where no end group is shown, it is not given here. Side-chain parts run from the residue outwards. The star is where a group is joined. C18 diacid = O=C(O)CCCCCCCCCCCCCCCCC(=O)*; C16 diacid = O=C(O)CCCCCCCCCCCCCCC(=O)*; γGlu = O=C(O)[C@H](CCC(=O)[*:2])N[*:1]; AEEA = NCCOCCOCC(=O)O

Common to all, as to experiment: cell-based or functional assay
The target of experiment [1] is T1, human GIP receptor (human, UniProt P48546 22-466).
T1 sequence (looked up): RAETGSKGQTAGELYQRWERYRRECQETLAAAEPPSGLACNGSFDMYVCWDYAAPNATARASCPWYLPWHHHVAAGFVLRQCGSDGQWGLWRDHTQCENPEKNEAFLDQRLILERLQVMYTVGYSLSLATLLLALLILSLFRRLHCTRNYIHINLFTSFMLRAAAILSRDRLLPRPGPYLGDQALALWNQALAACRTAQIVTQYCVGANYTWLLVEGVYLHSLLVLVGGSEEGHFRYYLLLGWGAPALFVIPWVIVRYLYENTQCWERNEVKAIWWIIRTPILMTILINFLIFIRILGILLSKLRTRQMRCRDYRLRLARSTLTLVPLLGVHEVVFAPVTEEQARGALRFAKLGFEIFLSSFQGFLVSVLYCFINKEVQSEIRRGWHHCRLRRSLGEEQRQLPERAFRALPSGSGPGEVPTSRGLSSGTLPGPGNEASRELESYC

For experiment [2], the target named is T1, human GIP receptor. The source holds these as a separate data set.
Experiment [3] addresses T1, human GIP receptor. This is another data set of the same source.

B1: AT355 (peptide)
peptide: SDYSIAMDKIK(C16 diacid)QQDFVNWLLAQK-NH2
modifications: N-terminus assumed
SMILES: CC[C@H](C)[C@H](NC(=O)[C@H](CO)NC(=O)[C@H](Cc1ccc(O)cc1)NC(=O)[C@H](CC(=O)O)NC(=O)[C@@H](N)CO)C(=O)N[C@@H](C)C(=O)N[C@@H](CCSC)C(=O)N[C@@H](CC(=O)O)C(=O)N[C@@H](CCCCN)C(=O)N[C@H](C(=O)N[C@@H](CCCCNC(=O)CCCCCCCCCCCCCCC(=O)O)C(=O)N[C@@H](CCC(N)=O)C(=O)N[C@@H](CCC(N)=O)C(=O)N[C@@H](CC(=O)O)C(=O)N[C@@H](Cc1ccccc1)C(=O)N[C@H](C(=O)N[C@@H](CC(N)=O)C(=O)N[C@@H](Cc1c[nH]c2ccccc12)C(=O)N[C@@H](CC(C)C)C(=O)N[C@@H](CC(C)C)C(=O)N[C@@H](C)C(=O)N[C@@H](CCC(N)=O)C(=O)N[C@@H](CCCCN)C(N)=O)C(C)C)[C@@H](C)CC
Regarding B1, in experiment [1], the “CisBio cAMP agonism % Efficacy” value was determined as 0%, the “CisBio cAMP antagonism % inhib” value turned out to be 65%, the “CisBio cAMP antagonism IC50” value came to 233 nM and the “CisBio cAMP antagonism pIC50” value came to 6.6. Also, in experiment [2], the “cAMP antagonism % inhib” value was found to be 100%, the “cAMP antagonism IC50” value came out at 53 nM and the “cAMP antagonism log IC50” value is -7.3 log M.

B2: AT385 (peptide)
peptide: SGTFISDYSIAMDRIK([AEEA-AEEA-AEEA-γGlu-C18 diacid])QQDFVNWLLAQR-NH2
modifications: N-terminus assumed
SMILES: CC[C@H](C)[C@H](NC(=O)[C@H](CO)NC(=O)[C@H](Cc1ccc(O)cc1)NC(=O)[C@H](CC(=O)O)NC(=O)[C@H](CO)NC(=O)[C@@H](NC(=O)[C@H](Cc1ccccc1)NC(=O)[C@@H](NC(=O)CNC(=O)[C@@H](N)CO)[C@@H](C)O)[C@@H](C)CC)C(=O)N[C@@H](C)C(=O)N[C@@H](CCSC)C(=O)N[C@@H](CC(=O)O)C(=O)N[C@@H](CCCNC(=N)N)C(=O)N[C@H](C(=O)N[C@@H](CCCCNC(=O)COCCOCCNC(=O)COCCOCCNC(=O)COCCOCCNC(=O)CC[C@H](NC(=O)CCCCCCCCCCCCCCCCC(=O)O)C(=O)O)C(=O)N[C@@H](CCC(N)=O)C(=O)N[C@@H](CCC(N)=O)C(=O)N[C@@H](CC(=O)O)C(=O)N[C@@H](Cc1ccccc1)C(=O)N[C@H](C(=O)N[C@@H](CC(N)=O)C(=O)N[C@@H](Cc1c[nH]c2ccccc12)C(=O)N[C@@H](CC(C)C)C(=O)N[C@@H](CC(C)C)C(=O)N[C@@H](C)C(=O)N[C@@H](CCC(N)=O)C(=O)N[C@@H](CCCNC(=N)N)C(N)=O)C(C)C)[C@@H](C)CC
Turning to B2, in experiment [1], the “CisBio cAMP agonism % Efficacy” value was found to be 3%, the “CisBio cAMP antagonism % inhib” value turned out to be 70%, the “CisBio cAMP antagonism IC50” value came to 43 nM and the “CisBio cAMP antagonism pIC50” value is 7.4. Besides, in experiment [1], the “DiscoveRx cAMP antagonism % inhib” value came out at 100%, the “DiscoveRx cAMP antagonism IC50” value was determined as 4 nM and the “DiscoveRx cAMP antagonism log IC50” value is -8.4 log M. Further, in experiment [3], the “CisBio cAMP antagonism % inhib” value turned out to be 70%, the “CisBio cAMP antagonism IC50” value came to 43 nM, the “cAMP antagonism % inhib” value came to 100% and the “cAMP antagonism IC50” value was determined as 4 nM.

B3: AT383 (peptide)
peptide: SGTFISDYSIAMDRIK([AEEA-AEEA-AEEA-γGlu-C16 diacid])QQDFVNWLLAQR-NH2
modifications: N-terminus assumed
SMILES: CC[C@H](C)[C@H](NC(=O)[C@H](CO)NC(=O)[C@H](Cc1ccc(O)cc1)NC(=O)[C@H](CC(=O)O)NC(=O)[C@H](CO)NC(=O)[C@@H](NC(=O)[C@H](Cc1ccccc1)NC(=O)[C@@H](NC(=O)CNC(=O)[C@@H](N)CO)[C@@H](C)O)[C@@H](C)CC)C(=O)N[C@@H](C)C(=O)N[C@@H](CCSC)C(=O)N[C@@H](CC(=O)O)C(=O)N[C@@H](CCCNC(=N)N)C(=O)N[C@H](C(=O)N[C@@H](CCCCNC(=O)COCCOCCNC(=O)COCCOCCNC(=O)COCCOCCNC(=O)CC[C@H](NC(=O)CCCCCCCCCCCCCCC(=O)O)C(=O)O)C(=O)N[C@@H](CCC(N)=O)C(=O)N[C@@H](CCC(N)=O)C(=O)N[C@@H](CC(=O)O)C(=O)N[C@@H](Cc1ccccc1)C(=O)N[C@H](C(=O)N[C@@H](CC(N)=O)C(=O)N[C@@H](Cc1c[nH]c2ccccc12)C(=O)N[C@@H](CC(C)C)C(=O)N[C@@H](CC(C)C)C(=O)N[C@@H](C)C(=O)N[C@@H](CCC(N)=O)C(=O)N[C@@H](CCCNC(=N)N)C(N)=O)C(C)C)[C@@H](C)CC
In the case of B3, in experiment [1], the “CisBio cAMP agonism % Efficacy” value was 0%, the “CisBio cAMP antagonism % inhib” value came to 89%, the “CisBio cAMP antagonism IC50” value came to 12.6 nM and the “CisBio cAMP antagonism pIC50” value was 7.9. Moreover, in experiment [1], the “DiscoveRx cAMP antagonism % inhib” value was 100%, the “DiscoveRx cAMP antagonism IC50” value is 1 nM and the “DiscoveRx cAMP antagonism log IC50” value is -8.9 log M. In addition, in experiment [3], the “CisBio cAMP antagonism % inhib” value is 89%, the “CisBio cAMP antagonism IC50” value is 12.6 nM, the “cAMP antagonism % inhib” value is 100% and the “cAMP antagonism IC50” value worked out at 1 nM.

B4: AT354 (peptide)
peptide: ISDYSIAMDKIK(C16 diacid)QQDFVNWLLAQK-NH2
modifications: N-terminus assumed
SMILES: CC[C@H](C)[C@H](N)C(=O)N[C@@H](CO)C(=O)N[C@@H](CC(=O)O)C(=O)N[C@@H](Cc1ccc(O)cc1)C(=O)N[C@@H](CO)C(=O)N[C@H](C(=O)N[C@@H](C)C(=O)N[C@@H](CCSC)C(=O)N[C@@H](CC(=O)O)C(=O)N[C@@H](CCCCN)C(=O)N[C@H](C(=O)N[C@@H](CCCCNC(=O)CCCCCCCCCCCCCCC(=O)O)C(=O)N[C@@H](CCC(N)=O)C(=O)N[C@@H](CCC(N)=O)C(=O)N[C@@H](CC(=O)O)C(=O)N[C@@H](Cc1ccccc1)C(=O)N[C@H](C(=O)N[C@@H](CC(N)=O)C(=O)N[C@@H](Cc1c[nH]c2ccccc12)C(=O)N[C@@H](CC(C)C)C(=O)N[C@@H](CC(C)C)C(=O)N[C@@H](C)C(=O)N[C@@H](CCC(N)=O)C(=O)N[C@@H](CCCCN)C(N)=O)C(C)C)[C@@H](C)CC)[C@@H](C)CC
Regarding B4, in experiment [1], the “CisBio cAMP agonism % Efficacy” value was 0%, the “CisBio cAMP antagonism % inhib” value turned out to be 91%, the “CisBio cAMP antagonism IC50” value was found to be 108 nM and the “CisBio cAMP antagonism pIC50” value turned out to be 7. In experiment [2], the “cAMP antagonism % inhib” value was 100%, the “cAMP antagonism IC50” value was 10 nM and the “cAMP antagonism log IC50” value was -8 log M.

B5: AT384 (peptide)
peptide: SGTFISDYSIAMDRIK([AEEA-AEEA-γGlu-C18 diacid])QQDFVNWLLAQR-NH2
modifications: N-terminus assumed
SMILES: CC[C@H](C)[C@H](NC(=O)[C@H](CO)NC(=O)[C@H](Cc1ccc(O)cc1)NC(=O)[C@H](CC(=O)O)NC(=O)[C@H](CO)NC(=O)[C@@H](NC(=O)[C@H](Cc1ccccc1)NC(=O)[C@@H](NC(=O)CNC(=O)[C@@H](N)CO)[C@@H](C)O)[C@@H](C)CC)C(=O)N[C@@H](C)C(=O)N[C@@H](CCSC)C(=O)N[C@@H](CC(=O)O)C(=O)N[C@@H](CCCNC(=N)N)C(=O)N[C@H](C(=O)N[C@@H](CCCCNC(=O)COCCOCCNC(=O)COCCOCCNC(=O)CC[C@H](NC(=O)CCCCCCCCCCCCCCCCC(=O)O)C(=O)O)C(=O)N[C@@H](CCC(N)=O)C(=O)N[C@@H](CCC(N)=O)C(=O)N[C@@H](CC(=O)O)C(=O)N[C@@H](Cc1ccccc1)C(=O)N[C@H](C(=O)N[C@@H](CC(N)=O)C(=O)N[C@@H](Cc1c[nH]c2ccccc12)C(=O)N[C@@H](CC(C)C)C(=O)N[C@@H](CC(C)C)C(=O)N[C@@H](C)C(=O)N[C@@H](CCC(N)=O)C(=O)N[C@@H](CCCNC(=N)N)C(N)=O)C(C)C)[C@@H](C)CC
B5: in experiment [1], the “CisBio cAMP agonism % Efficacy” value amounted to 0%, the “CisBio cAMP antagonism % inhib” value amounted to 97%, the “CisBio cAMP antagonism IC50” value was determined as 54.1 nM and the “CisBio cAMP antagonism pIC50” value came out at 7.3. Moreover, in experiment [1], the “DiscoveRx cAMP antagonism % inhib” value came out at 100%, the “DiscoveRx cAMP antagonism IC50” value is 8 nM and the “DiscoveRx cAMP antagonism log IC50” value was -8.1 log M. Further, in experiment [3], the “CisBio cAMP antagonism % inhib” value was 97%, the “CisBio cAMP antagonism IC50” value amounted to 54.1 nM, the “cAMP antagonism % inhib” value was found to be 100% and the “cAMP antagonism IC50” value was determined as 8 nM.

B6: AT393 (peptide)
peptide: SGTFISDYSIAMDRIK(C18 diacid)QQDFVNWLLAQR-NH2
modifications: N-terminus assumed
SMILES: CC[C@H](C)[C@H](NC(=O)[C@H](CO)NC(=O)[C@H](Cc1ccc(O)cc1)NC(=O)[C@H](CC(=O)O)NC(=O)[C@H](CO)NC(=O)[C@@H](NC(=O)[C@H](Cc1ccccc1)NC(=O)[C@@H](NC(=O)CNC(=O)[C@@H](N)CO)[C@@H](C)O)[C@@H](C)CC)C(=O)N[C@@H](C)C(=O)N[C@@H](CCSC)C(=O)N[C@@H](CC(=O)O)C(=O)N[C@@H](CCCNC(=N)N)C(=O)N[C@H](C(=O)N[C@@H](CCCCNC(=O)CCCCCCCCCCCCCCCCC(=O)O)C(=O)N[C@@H](CCC(N)=O)C(=O)N[C@@H](CCC(N)=O)C(=O)N[C@@H](CC(=O)O)C(=O)N[C@@H](Cc1ccccc1)C(=O)N[C@H](C(=O)N[C@@H](CC(N)=O)C(=O)N[C@@H](Cc1c[nH]c2ccccc12)C(=O)N[C@@H](CC(C)C)C(=O)N[C@@H](CC(C)C)C(=O)N[C@@H](C)C(=O)N[C@@H](CCC(N)=O)C(=O)N[C@@H](CCCNC(=N)N)C(N)=O)C(C)C)[C@@H](C)CC
On to B6, for which, in experiment [1], the “CisBio cAMP agonism % Efficacy” value was found to be 6%, the “CisBio cAMP antagonism % inhib” value stood at 78%, the “CisBio cAMP antagonism IC50” value worked out at 33.5 nM and the “CisBio cAMP antagonism pIC50” value came to 7.5. Besides, in experiment [1], the “DiscoveRx cAMP antagonism % inhib” value was 100%, the “DiscoveRx cAMP antagonism IC50” value was 1 nM and the “DiscoveRx cAMP antagonism log IC50” value is -8.9 log M. In experiment [3], the “CisBio cAMP antagonism % inhib” value was found to be 78%, the “CisBio cAMP antagonism IC50” value is 33.5 nM, the “cAMP antagonism % inhib” value turned out to be 100% and the “cAMP antagonism IC50” value was determined as 1 nM.
